Consider one molecule from US20190367620A1 (Merck KGaA, published 2019).

By EC50 (read off the curve) is commonly meant the midpoint of the concentration-response curve. Read a low EC50 (read off the curve) as higher potency in that assay.

The target in one assay is T1, Human FGFR1-IIIc D3-His6 (human, UniProt P11362 254-376).
T1 construct: also called D3 domain; F3FR1c-D3
T1 sequence: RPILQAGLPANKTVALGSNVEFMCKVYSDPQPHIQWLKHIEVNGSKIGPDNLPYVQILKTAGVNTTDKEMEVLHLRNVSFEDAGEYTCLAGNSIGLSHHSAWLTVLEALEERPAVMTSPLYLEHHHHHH
The assay is described as follows: SPR (NBD indicates no binding detected).

Assay [1] has as its target T2, FGFR1 D2 point mutant P57A (human, UniProt P11362 22-254).
T2 chain: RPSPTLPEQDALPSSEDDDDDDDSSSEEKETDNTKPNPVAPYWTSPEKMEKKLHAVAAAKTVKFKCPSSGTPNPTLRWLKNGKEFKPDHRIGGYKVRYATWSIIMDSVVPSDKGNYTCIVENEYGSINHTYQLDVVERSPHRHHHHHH
As to the kind of experiment: SPR; free energy change relative to wild-type D2. The gist of the method:
(§1)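 Point mutants of FGFR1 D2, expressed in HEK cells, were tested by SPR against mAb #A08 captured via anti-human Fc to ~200 RU, in HBS-EP+ at 25° C. KD came from a 1:1 Langmuir fit (koff/kon), and ΔΔG was derived from the ratio of wild-type to mutant KD.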
For orientation: In SPR one partner is held on a chip, and binding of the other changes the refractive index at the surface.

Assay [2] has as its target T3, FGFR1 D2 point mutant A58G (human, UniProt P11362 22-254).
T3 chain: T2 chain with A57P, A58G
As to the kind of experiment: SPR; free energy change relative to wild-type D2. An outline of the steps: as §1

In assay [3] the target is T4, FGFR1 D2 point mutant V96A (human, UniProt P11362 22-254).
T4 chain: T2 chain with A57P, V96A
The assay is described as follows: SPR; free energy change relative to wild-type D2. The gist of the method:
as §1

In assay [4] the target is T5, FGFR1 D2 point mutant R97A (human, UniProt P11362 22-254).
T5 chain: T2 chain with A57P, R97A
The assay is described as follows: SPR; free energy change relative to wild-type D2. An outline of the steps: as §1

In assay [5] the target is T6, FGFR1 D2 point mutant A99G (human, UniProt P11362 22-254).
T6 chain: T2 chain with A57P, A99G
As to the kind of experiment: SPR; free energy change relative to wild-type D2. An outline of the steps:
as §1

Assay [6] concerns the target T7, FGFR1 D2 point mutant S102A (human, UniProt P11362 22-254).
T7 chain: T2 chain with A57P, S102A
As to the kind of experiment: SPR; free energy change relative to wild-type D2. An outline of the steps:
as §1

The target of assay [7] is T8, human FGFR1b-IIIc extracellular domain with a HIS tag (human, UniProt P11362 22-376).
T8 construct: also called huFGFR1b-IIIc; hFGFR1b-IIIc
T8 sequence: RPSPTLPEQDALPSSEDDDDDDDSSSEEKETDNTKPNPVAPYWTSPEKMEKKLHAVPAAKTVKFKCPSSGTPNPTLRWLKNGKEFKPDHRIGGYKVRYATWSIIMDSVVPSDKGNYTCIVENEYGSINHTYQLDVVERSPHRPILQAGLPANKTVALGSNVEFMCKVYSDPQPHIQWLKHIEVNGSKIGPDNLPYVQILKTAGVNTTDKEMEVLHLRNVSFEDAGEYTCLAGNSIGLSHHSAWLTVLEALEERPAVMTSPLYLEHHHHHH
As to the kind of experiment: ELISA, antibody titrated on huFGFR1b-IIIc, O.D. 450 nm [panel huFGFR1b-IIIc]. (In general: In an ELISA, binding on a coated surface is turned into a signal by an enzyme label.)

Where a chain is given by its changes, count along the chain named.

B1: mAb #A08 (antibody, V domains shown)
VH: EVQLQESGPGLVKPSGTLSLTCAVSGGSISSNNWWSWVRQPPGKGLEWIGEIYHSGSTSYNPSLKSRVTISVDKSKNQFSLKLNSVTAADTAVYYCARGTDWFDPWGQGTLVTVSS
VL: QAVLTQPPSVSVAPGQTARITCGGNNIGSESVHWYQQKPGQAPVLVVYDDSDRPSGIPERFSGSNSGNTATLTISRVEAGDEADYYCQVWDSTSDHRVFGGGTKLTVL
notes: Only variable domains are tied to the name mAb #A08 (hit); also called #A08 hit; mAb #08
For the molecule B1, the binding result in the assay with Human FGFR1-IIIc D3-His6 was “no binding”. Moreover, the ΔΔGmut in assay [1] was 0.44 kcal/mol; in assay [2], 1.44 kcal/mol; in assay [3], -0.02 kcal/mol; in assay [4] it was 1.83 kcal/mol; in assay [5], -0.05 kcal/mol; in assay [6], -0.13 kcal/mol. For the same molecule, the “EC50 (read off the curve)” value in assay [7] is roughly 0.03 nM.
